# From paper PMC6406451
# Target: human TRPM8 fused C-terminally to TEV-GFP-His8-tag (human), Q7Z2W7
# Test: SDS-PAGE with in-gel GFP fluorescence; crude S. cerevisiae membranes separated by SDS-PAGE, GFP fluorescence of the fusion read in the gel
# Settings: remark: other sources report otherwise
binder,measurement,value
"human TRPM8 fused C-terminally to TEV-GFP-His8-tag, Q7Z2W7 1-1104 (natural protein) MSFRAARLSMRNRRNDTLDSTRTLYSSASRSTDLSYSESDLVNFIQANFKKRECVFFTKDSKATENVCKCGYAQSQHMEGTQINQSEKWNYKKHTKEFPTDAFGDIQFETLGKKGKYIRLSCDTDAEILYELLTQHWHLKTPNLVISVTGGAKNFALKPRMRKIFSRLIYIAQSKGAWILTGGTHYGLMKYIGEVVRDNTISRSSEENIVAIGIAAWGMVSNRDTLIRNCDAEGYFLAQYLMDDFTRDPLYILDNNHTHLLLVDNGCHGHPTVEAKLRNQLEKYISERTIQDSNYGGKIPIVCFAQGGGKETLKAINTSIKNKIPCVVVEGSGQIADVIASLVEVEDALTSSAVKEKLVRFLPRTVSRLPEEETESWIKWLKEILECSHLLTVIKMEEAGDEIVSNAISYALYKAFSTSEQDKDNWNGQLKLLLEWNQLDLANDEIFTNDRRWESADLQEVMFTALIKDRPKFVRLFLENGLNLRKFLTHDVLTELFSNHFSTLVYRNLQIAKNSYNDALLTFVWKLVANFRRGFRKEDRNGRDEMDIELHDVSPITRHPLQALFIWAILQNKKELSKVIWEQTRGCTLAALGASKLLKTLAKVKNDINAAGESEELANEYETRAVELFTECYSSDEDLAEQLLVYSCEAWGGSNCLELAVEATDQHFIAQPGVQNFLSKQWYGEISRDTKNWKIILCLFIIPLVGCGFVSFRKKPVDKHKKLLWYYVAFFTSPFVVFSWNVVFYIAFLLLFAYVLLMDFHSVPHPPELVLYSLVFVLFCDEVRQWYVNGVNYFTDLWNVMDTLGLFYFIAGIVFRLHSSNKSSLYSGRVIFCLDYIIFTLRLIHIFTVSRNLGPKIIMLQRMLIDVFFFLFLFAVWMVAFGVARQGILRQNEQRWRWIFRSVIYEPYLAMFGQVPSDVDGTTYDFAHCTFTGNESKPLCVELDEHNLPRFPEWITIPLVCIYMLSTNILLVNLLVAMFGYTVGTVQENNDQVWKFQRYFLVQEYCSRLNIPFPFIVFAYFYMVVKKCFKCCCKEKNMESSVCCFKNEDNETLAWEGVMKENYLVKINTKANDTSEEMRHRFRQLDTKLNDLKGLLKEIANKIK",stoichiometry N,2
